The labels stand for the following.
B1: Compound 105 (peptide)
peptide: Palmitoyl-NGEVQAEIKKSWSRWTLALD-NH2
SMILES: CCCCCCCCCCCCCCCC(=O)N[C@@H](CC(N)=O)C(=O)NCC(=O)N[C@@H](CCC(=O)O)C(=O)N[C@H](C(=O)N[C@@H](CCC(N)=O)C(=O)N[C@@H](C)C(=O)N[C@@H](CCC(=O)O)C(=O)N[C@H](C(=O)N[C@@H](CCCCN)C(=O)N[C@@H](CCCCN)C(=O)N[C@@H](CO)C(=O)N[C@@H](Cc1c[nH]c2ccccc12)C(=O)N[C@@H](CO)C(=O)N[C@@H](CCCNC(=N)N)C(=O)N[C@@H](Cc1c[nH]c2ccccc12)C(=O)N[C@H](C(=O)N[C@@H](CC(C)C)C(=O)N[C@@H](C)C(=O)N[C@@H](CC(C)C)C(=O)N[C@@H](CC(=O)O)C(N)=O)[C@@H](C)O)[C@@H](C)CC)C(C)C
B2: Compound 78 (peptide)
peptide: Palmitoyl-TNAGRSDTAQQYRKLL-NH2
SMILES: CCCCCCCCCCCCCCCC(=O)N[C@H](C(=O)N[C@@H](CC(N)=O)C(=O)N[C@@H](C)C(=O)NCC(=O)N[C@@H](CCCNC(=N)N)C(=O)N[C@@H](CO)C(=O)N[C@@H](CC(=O)O)C(=O)N[C@H](C(=O)N[C@@H](C)C(=O)N[C@@H](CCC(N)=O)C(=O)N[C@@H](CCC(N)=O)C(=O)N[C@@H](Cc1ccc(O)cc1)C(=O)N[C@@H](CCCNC(=N)N)C(=O)N[C@@H](CCCCN)C(=O)N[C@@H](CC(C)C)C(=O)N[C@@H](CC(C)C)C(N)=O)[C@@H](C)O)[C@@H](C)O
B3: Compound 99 (peptide)
peptide: Palmitoyl-NGEVQAEIKKSW-NH2
SMILES: CCCCCCCCCCCCCCCC(=O)N[C@@H](CC(N)=O)C(=O)NCC(=O)N[C@@H](CCC(=O)O)C(=O)N[C@H](C(=O)N[C@@H](CCC(N)=O)C(=O)N[C@@H](C)C(=O)N[C@@H](CCC(=O)O)C(=O)N[C@H](C(=O)N[C@@H](CCCCN)C(=O)N[C@@H](CCCCN)C(=O)N[C@@H](CO)C(=O)N[C@@H](Cc1c[nH]c2ccccc12)C(N)=O)[C@@H](C)CC)C(C)C
B4: Compound 79 (peptide)
peptide: Palmitoyl-TNAGRSDARQQYRKLL-NH2
SMILES: CCCCCCCCCCCCCCCC(=O)N[C@H](C(=O)N[C@@H](CC(N)=O)C(=O)N[C@@H](C)C(=O)NCC(=O)N[C@@H](CCCNC(=N)N)C(=O)N[C@@H](CO)C(=O)N[C@@H](CC(=O)O)C(=O)N[C@@H](C)C(=O)N[C@@H](CCCNC(=N)N)C(=O)N[C@@H](CCC(N)=O)C(=O)N[C@@H](CCC(N)=O)C(=O)N[C@@H](Cc1ccc(O)cc1)C(=O)N[C@@H](CCCNC(=N)N)C(=O)N[C@@H](CCCCN)C(=O)N[C@@H](CC(C)C)C(=O)N[C@@H](CC(C)C)C(N)=O)[C@@H](C)O
B5: Compound 76 (peptide)
peptide: Palmitoyl-TNAGASDTRQQYRKLL-NH2
SMILES: CCCCCCCCCCCCCCCC(=O)N[C@H](C(=O)N[C@@H](CC(N)=O)C(=O)N[C@@H](C)C(=O)NCC(=O)N[C@@H](C)C(=O)N[C@@H](CO)C(=O)N[C@@H](CC(=O)O)C(=O)N[C@H](C(=O)N[C@@H](CCCNC(=N)N)C(=O)N[C@@H](CCC(N)=O)C(=O)N[C@@H](CCC(N)=O)C(=O)N[C@@H](Cc1ccc(O)cc1)C(=O)N[C@@H](CCCNC(=N)N)C(=O)N[C@@H](CCCCN)C(=O)N[C@@H](CC(C)C)C(=O)N[C@@H](CC(C)C)C(N)=O)[C@@H](C)O)[C@@H](C)O
B6: Compound 77 (peptide)
peptide: Palmitoyl-TNAGRADTRQQYRKLL-NH2
SMILES: CCCCCCCCCCCCCCCC(=O)N[C@H](C(=O)N[C@@H](CC(N)=O)C(=O)N[C@@H](C)C(=O)NCC(=O)N[C@@H](CCCNC(=N)N)C(=O)N[C@@H](C)C(=O)N[C@@H](CC(=O)O)C(=O)N[C@H](C(=O)N[C@@H](CCCNC(=N)N)C(=O)N[C@@H](CCC(N)=O)C(=O)N[C@@H](CCC(N)=O)C(=O)N[C@@H](Cc1ccc(O)cc1)C(=O)N[C@@H](CCCNC(=N)N)C(=O)N[C@@H](CCCCN)C(=O)N[C@@H](CC(C)C)C(=O)N[C@@H](CC(C)C)C(N)=O)[C@@H](C)O)[C@@H](C)O
B7: Compound 100 (peptide)
peptide: Palmitoyl-NGEVQAEIKKSWSR-NH2
SMILES: CCCCCCCCCCCCCCCC(=O)N[C@@H](CC(N)=O)C(=O)NCC(=O)N[C@@H](CCC(=O)O)C(=O)N[C@H](C(=O)N[C@@H](CCC(N)=O)C(=O)N[C@@H](C)C(=O)N[C@@H](CCC(=O)O)C(=O)N[C@H](C(=O)N[C@@H](CCCCN)C(=O)N[C@@H](CCCCN)C(=O)N[C@@H](CO)C(=O)N[C@@H](Cc1c[nH]c2ccccc12)C(=O)N[C@@H](CO)C(=O)N[C@@H](CCCNC(=N)N)C(N)=O)[C@@H](C)CC)C(C)C
B8: Compound 101 (peptide)
peptide: Palmitoyl-NGEVQAEIKKSWSRWT-NH2
SMILES: CCCCCCCCCCCCCCCC(=O)N[C@@H](CC(N)=O)C(=O)NCC(=O)N[C@@H](CCC(=O)O)C(=O)N[C@H](C(=O)N[C@@H](CCC(N)=O)C(=O)N[C@@H](C)C(=O)N[C@@H](CCC(=O)O)C(=O)N[C@H](C(=O)N[C@@H](CCCCN)C(=O)N[C@@H](CCCCN)C(=O)N[C@@H](CO)C(=O)N[C@@H](Cc1c[nH]c2ccccc12)C(=O)N[C@@H](CO)C(=O)N[C@@H](CCCNC(=N)N)C(=O)N[C@@H](Cc1c[nH]c2ccccc12)C(=O)N[C@H](C(N)=O)[C@@H](C)O)[C@@H](C)CC)C(C)C
B9: Compound 6 (peptide)
peptide: Palmitoyl-YFRRLHSTRNYIH-NH2
SMILES: CCCCCCCCCCCCCCCC(=O)N[C@@H](Cc1ccc(O)cc1)C(=O)N[C@@H](Cc1ccccc1)C(=O)N[C@@H](CCCNC(=N)N)C(=O)N[C@@H](CCCNC(=N)N)C(=O)N[C@@H](CC(C)C)C(=O)N[C@@H](Cc1c[nH]cn1)C(=O)N[C@@H](CO)C(=O)N[C@H](C(=O)N[C@@H](CCCNC(=N)N)C(=O)N[C@@H](CC(N)=O)C(=O)N[C@@H](Cc1ccc(O)cc1)C(=O)N[C@H](C(=O)N[C@@H](Cc1c[nH]cn1)C(N)=O)[C@@H](C)CC)[C@@H](C)O
B10: Compound 80 (peptide)
peptide: Palmitoyl-TNAARSDTRQQYRKLL-NH2
SMILES: CCCCCCCCCCCCCCCC(=O)N[C@H](C(=O)N[C@@H](CC(N)=O)C(=O)N[C@@H](C)C(=O)N[C@@H](C)C(=O)N[C@@H](CCCNC(=N)N)C(=O)N[C@@H](CO)C(=O)N[C@@H](CC(=O)O)C(=O)N[C@H](C(=O)N[C@@H](CCCNC(=N)N)C(=O)N[C@@H](CCC(N)=O)C(=O)N[C@@H](CCC(N)=O)C(=O)N[C@@H](Cc1ccc(O)cc1)C(=O)N[C@@H](CCCNC(=N)N)C(=O)N[C@@H](CCCCN)C(=O)N[C@@H](CC(C)C)C(=O)N[C@@H](CC(C)C)C(N)=O)[C@@H](C)O)[C@@H](C)O
B11: Compound 98 (peptide)
peptide: Palmitoyl-NGEVQAEIKKSWSRWTLA-NH2
SMILES: CCCCCCCCCCCCCCCC(=O)N[C@@H](CC(N)=O)C(=O)NCC(=O)N[C@@H](CCC(=O)O)C(=O)N[C@H](C(=O)N[C@@H](CCC(N)=O)C(=O)N[C@@H](C)C(=O)N[C@@H](CCC(=O)O)C(=O)N[C@H](C(=O)N[C@@H](CCCCN)C(=O)N[C@@H](CCCCN)C(=O)N[C@@H](CO)C(=O)N[C@@H](Cc1c[nH]c2ccccc12)C(=O)N[C@@H](CO)C(=O)N[C@@H](CCCNC(=N)N)C(=O)N[C@@H](Cc1c[nH]c2ccccc12)C(=O)N[C@H](C(=O)N[C@@H](CC(C)C)C(=O)N[C@@H](C)C(N)=O)[C@@H](C)O)[C@@H](C)CC)C(C)C
B12: Compound 103 (peptide)
peptide: Palmitoyl-WTLALDFKRKAR-NH2
SMILES: CCCCCCCCCCCCCCCC(=O)N[C@@H](Cc1c[nH]c2ccccc12)C(=O)N[C@H](C(=O)N[C@@H](CC(C)C)C(=O)N[C@@H](C)C(=O)N[C@@H](CC(C)C)C(=O)N[C@@H](CC(=O)O)C(=O)N[C@@H](Cc1ccccc1)C(=O)N[C@@H](CCCCN)C(=O)N[C@@H](CCCNC(=N)N)C(=O)N[C@@H](CCCCN)C(=O)N[C@@H](C)C(=O)N[C@@H](CCCNC(=N)N)C(N)=O)[C@@H](C)O
B13: Compound 104 (peptide)
peptide: Palmitoyl-SRWTLALDFKRKAR-NH2
SMILES: CCCCCCCCCCCCCCCC(=O)N[C@@H](CO)C(=O)N[C@@H](CCCNC(=N)N)C(=O)N[C@@H](Cc1c[nH]c2ccccc12)C(=O)N[C@H](C(=O)N[C@@H](CC(C)C)C(=O)N[C@@H](C)C(=O)N[C@@H](CC(C)C)C(=O)N[C@@H](CC(=O)O)C(=O)N[C@@H](Cc1ccccc1)C(=O)N[C@@H](CCCCN)C(=O)N[C@@H](CCCNC(=N)N)C(=O)N[C@@H](CCCCN)C(=O)N[C@@H](C)C(=O)N[C@@H](CCCNC(=N)N)C(N)=O)[C@@H](C)O
B14: Compound 81 (peptide)
peptide: Palmitoyl-TNAGRSDTRAQYRKLL-NH2
SMILES: CCCCCCCCCCCCCCCC(=O)N[C@H](C(=O)N[C@@H](CC(N)=O)C(=O)N[C@@H](C)C(=O)NCC(=O)N[C@@H](CCCNC(=N)N)C(=O)N[C@@H](CO)C(=O)N[C@@H](CC(=O)O)C(=O)N[C@H](C(=O)N[C@@H](CCCNC(=N)N)C(=O)N[C@@H](C)C(=O)N[C@@H](CCC(N)=O)C(=O)N[C@@H](Cc1ccc(O)cc1)C(=O)N[C@@H](CCCNC(=N)N)C(=O)N[C@@H](CCCCN)C(=O)N[C@@H](CC(C)C)C(=O)N[C@@H](CC(C)C)C(N)=O)[C@@H](C)O)[C@@H](C)O

* marks the point of attachment. Palmitoyl = CCCCCCCCCCCCCCCC(=O)*

PTHR1 receptor, sequence (P25961 whole entry): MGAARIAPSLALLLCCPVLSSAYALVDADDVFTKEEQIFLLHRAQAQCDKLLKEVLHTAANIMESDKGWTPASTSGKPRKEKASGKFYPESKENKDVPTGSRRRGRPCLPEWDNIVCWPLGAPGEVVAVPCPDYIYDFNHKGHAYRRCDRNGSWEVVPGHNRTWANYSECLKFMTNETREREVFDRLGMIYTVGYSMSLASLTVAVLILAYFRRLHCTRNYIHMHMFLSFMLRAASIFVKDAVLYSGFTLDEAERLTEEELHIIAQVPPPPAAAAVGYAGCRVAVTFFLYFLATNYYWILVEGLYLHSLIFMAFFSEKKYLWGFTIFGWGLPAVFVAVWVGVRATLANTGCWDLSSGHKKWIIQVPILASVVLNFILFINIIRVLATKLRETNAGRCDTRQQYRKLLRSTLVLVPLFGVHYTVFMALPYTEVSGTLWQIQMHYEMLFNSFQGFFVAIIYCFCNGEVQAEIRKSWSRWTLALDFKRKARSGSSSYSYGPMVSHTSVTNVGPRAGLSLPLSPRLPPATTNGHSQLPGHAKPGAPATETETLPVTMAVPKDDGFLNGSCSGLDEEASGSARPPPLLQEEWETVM

The assay has as its target PTHR1 receptor.
Turning to B1, the Fold Shift of EC50 was 1.1 fold and the Inhibition of Maximal Response stood at 34%.

With B2, the Fold Shift of EC50 came out at 12.7 fold and the Inhibition of Maximal Response was -29.2%.

With B3, the Fold Shift of EC50 was found to be 1 fold and the Inhibition of Maximal Response amounted to 17.5%.

For B4, the Fold Shift of EC50 amounted to 7.2 fold and the Inhibition of Maximal Response stood at 1.2%.

As to B5, the Fold Shift of EC50 was 16.9 fold and the Inhibition of Maximal Response was found to be 2.4%.

B6: the Fold Shift of EC50 was 6.9 fold and the Inhibition of Maximal Response is 9.9%.

For the molecule B7, the Fold Shift of EC50 turned out to be 1.8 fold and the Inhibition of Maximal Response was 26.8%.

As to B8, the Fold Shift of EC50 was determined as 1.2 fold and the Inhibition of Maximal Response was found to be 25.3%.

As to B9, the Fold Shift of EC50 is 1 fold and the Inhibition of Maximal Response is 10.8%.

With B10, the Fold Shift of EC50 was found to be 2.3 fold and the Inhibition of Maximal Response was 0.8%.

Consider B11, for which the Fold Shift of EC50 was found to be 1 fold and the Inhibition of Maximal Response stood at 0.5%.

On to B12, for which the Fold Shift of EC50 stood at 1.2 fold and the Inhibition of Maximal Response was -7.3%.

With B13, the Fold Shift of EC50 came to 1.2 fold and the Inhibition of Maximal Response was 26.8%.

On to B14, for which the Fold Shift of EC50 stood at 13.8 fold and the Inhibition of Maximal Response was -20.8%.
